The text below walks through data of publication doi:10.1101/2021.04.08.21254942.

pKd: −log10 of the molar value.

In this assay the target is TAMRA-labeled M9-NLS of hnRNPA2 WT peptide (human). Briefly: fluorescence polarisation. In general terms: Polarisation of emitted light reports the rotation of a fluorescent probe.

The term pKd denotes −log10 of the Kd, conventionally taken in molar units. A high value points to a low Kd. The substance “Karyopherin-β2 WT (from UniProt Q92973 1-898) (receptor)” gave a negative logarithm of the Kd (pKd) of 7.02.
